From US20130136756A1 come the findings set out here.

The target of test [1] is 24P4C12 (human) (UniProt Q53GD3). Briefly: FACS on LNCaP cells, ADC at 0.011 nM.
Test [2] has the same target. Briefly: FACS on LNCaP cells, ADC at 0.033 nM.
Test [3] shares this target. Description: FACS on LNCaP cells, ADC at 0.098 nM.
For test [4] the target is unchanged. Briefly: FACS on LNCaP cells, ADC at 0.293 nM.
Test [5] shares this target. Briefly: FACS on LNCaP cells, ADC at 0.878 nM.
Test [6] shares this target. Briefly: FACS on LNCaP cells, ADC at 2.634 nM.
For test [7] the target is unchanged. Briefly: FACS on LNCaP cells, ADC at 7.901 nM.
For test [8] the target is unchanged. Briefly: FACS on LNCaP cells, ADC at 23.704 nM.
Test [9] has the same target. Briefly: FACS on LNCaP cells, ADC at 71.111 nM.
The target is the same in test [10]. Briefly: FACS on LNCaP cells, ADC at 106.667 nM.
Test [11] has the same target. Description: FACS on LNCaP cells, ADC at 160.000 nM.
For test [12] the target is unchanged. Description: FACS saturation binding on LNCaP cells (endogenous 24P4C12), one site fit.

Sequence of UniProt Q53GD3 (Q53GD3 whole entry): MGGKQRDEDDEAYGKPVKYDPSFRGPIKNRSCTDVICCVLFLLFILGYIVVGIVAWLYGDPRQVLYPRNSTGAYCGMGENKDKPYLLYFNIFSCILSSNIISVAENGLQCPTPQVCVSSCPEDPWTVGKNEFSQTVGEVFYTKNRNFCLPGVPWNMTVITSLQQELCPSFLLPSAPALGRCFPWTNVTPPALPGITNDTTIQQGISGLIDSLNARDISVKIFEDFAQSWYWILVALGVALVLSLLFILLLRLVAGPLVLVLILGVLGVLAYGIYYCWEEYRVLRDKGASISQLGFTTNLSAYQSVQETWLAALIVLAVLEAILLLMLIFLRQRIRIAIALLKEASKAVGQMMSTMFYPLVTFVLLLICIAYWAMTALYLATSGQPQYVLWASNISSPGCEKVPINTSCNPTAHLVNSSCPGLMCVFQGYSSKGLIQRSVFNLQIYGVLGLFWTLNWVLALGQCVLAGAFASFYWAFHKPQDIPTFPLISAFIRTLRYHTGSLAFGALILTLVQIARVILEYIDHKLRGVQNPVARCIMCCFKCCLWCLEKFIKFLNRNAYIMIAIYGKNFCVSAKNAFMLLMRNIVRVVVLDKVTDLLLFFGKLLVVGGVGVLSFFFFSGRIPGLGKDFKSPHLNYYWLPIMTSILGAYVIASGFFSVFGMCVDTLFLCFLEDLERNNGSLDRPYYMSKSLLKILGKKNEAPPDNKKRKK

B1: Ha5-1(5)2.1vcMMAE (protein)
heavy: QVQLVESGGGVVQPGRSLRLSCAASGFTFSSYGMHWVRQAPGKGLEWVAVMSYDGSKKFYTDSVKGRFTISRDNSKNTLYLQMNSLRAEDTAVYYCARDGGDYVRYHYYGMDVWGQGTTVTVSSASTKGPSVFPLAPCSRSTSESTAALGCLVKDYFPEPVTVSWNSGALTSGVHTFPAVLQSSGLYSLSSVVTVPSSNFGTQTYTCNVDHKPSNTKVDKTVERKCCVECPPCPAPPVAGPSVFLFPPKPKDTLMISRTPEVTCVVVDVSHEDPEVQFNWYVDGVEVHNAKTKPREEQFNSTFRVVSVLTVVHQDWLNGKEYKCKVSNKGLPAPIEKTISKTKGQPREPQVYTLPPSREEMTKNQVSLTCLVKGFYPSDIAVEWESNGQPENNYKTTPPMLDSDGSFFLYSKLTVDKSRWQQGNVFSCSVMHEALHNHYTQKSLSLSPGK
light: DIQMTQSPSTLSASIGDRVTITCRASQGISYYLAWYQQKPGKIPKLLIYDTSSLQSGVPSRFSGSRSGTDLSLTISSLQPEDVATYYCQRYDSAPLTFGGGTKVEIKRTVAAPSVFIFPPSDEQLKSGTASVVCLLNNFYPREAKVQWKVDNALQSGNSQESVTEQDSKDSTYSLSSTLTLSKADYEKHKVYACEVTHQGLSSPVTKSFNRGEC
modifications: vcMMAE (Val-Cit linker, monomethyl auristatin E) on cysteine thiols after partial TCEP reduction; p about 3.6 per antibody; positions not given
Usually Kd stands for the constant that tells how readily two partners part at equilibrium. High values mean a looser complex, low ones a tighter complex. Turning to B1, the MFI with 24P4C12 (human) [1] came to 7 MFI; with 24P4C12 (human) [2] it was 9 MFI; with 24P4C12 (human) [3], 15 MFI; with 24P4C12 (human) [4] it was 28 MFI; with 24P4C12 (human) [5], 54 MFI; with 24P4C12 (human) [6], 70 MFI. For the same molecule, the MFI in the test with 24P4C12 (human) [7] stood at 86 MFI; in the test with 24P4C12 (human) [8], 97 MFI; with 24P4C12 (human) [9] it was 108 MFI; with 24P4C12 (human) [10], 114 MFI; in the test with 24P4C12 (human) [11], 116 MFI. This molecule came in with a Kd with 24P4C12 (human) [12] of 1.05 nM.
